Reference: patent US20120258482

Biological target: purified recombinant 6x His-PCNA
Sequence (chain, as listed by the source): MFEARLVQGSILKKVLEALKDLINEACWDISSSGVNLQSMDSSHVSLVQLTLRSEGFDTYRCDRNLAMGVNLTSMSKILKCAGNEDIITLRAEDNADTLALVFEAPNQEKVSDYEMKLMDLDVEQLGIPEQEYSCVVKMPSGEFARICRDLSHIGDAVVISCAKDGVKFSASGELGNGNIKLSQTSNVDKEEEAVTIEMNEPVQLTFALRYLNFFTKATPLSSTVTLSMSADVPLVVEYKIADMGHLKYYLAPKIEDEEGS

B1: Flag-tagged C6orf211 protein fusion (Flag-Arm1) (protein)
chain: MAVVPASLSGQDVGSFAYLTIKDRIPQILTKVIDTLHRHKSEFFEKHGEEGVEAEKKAISLLSKLRNELQTDKPFIPLVEKFVDTDIWNQYLEYQQSLLNESDGKSRWFYSPWLLVECYMYRRIHEAIIQSPPIDYFDVFKESKEQNFYGSQESIIALCTHLQQLIRTIEDLDENQLKDEFFKLLQISLWGNKCDLSLSGGESSSQNTNVLNSLEDLKPFILLNDMEHLWSLLSNCKKTREKASATRVYIVLDNSGFELVTDLILADFLLSSELATEVHFYGKTIPWFVSDTTIHDFNWLIEQVKHSNHKWMSKCGADWEEYIKMGKWVYHNHIFWTLPHEYCAMPQVAPDLYAELQKAHLILFKGDLNYRKLTGDRKWEFSVPFHQALNGFHPAPLCTIRTLKAEIQVGLQPGQGEQLLASEPSWWTTGKYGIFQYDGPL
Q: B1 was tested. Which “PCNA-dependent carboxyl methyltransferase activity (vapor diffusion assay)” value did it give?
A: Significant levels of PCNA-dependent carboxyl methyltransferase activity was detected in the anti-Flag Flag-Arm1 expressing extracts, and this activity was not present in the immunoprecipitates from control extracts
